According to patent publication US20140087995A1 (published 2014):
Numbered stars: 1 amine (or outer) side, 2 acyl side, 3 side chain; on linkers, the order of the positions; unused ones are H or OH. Bridge positions count the residues as written; N and C are the ends. Side chains are listed from the residue outwards. Ends that are not written are not given here. * marks the point of attachment. C20 diacid = O=C(O)CCCCCCCCCCCCCCCCCCC(=O)*; γGlu = O=C(O)[C@H](CCC(=O)[*:2])N[*:1]; AEEA = NCCOCCOCC(=O)O

B1: N^ε1-[2-[2-[2-[[(4S)-4-carboxy-4-(19-carboxynonadecanoylamino)butanoyl]amino]ethoxy]ethoxy]acetyl]-[Arg17,Pro21,Pro27,Pro29,Pro31]-h-amylin (peptide)
peptide: K([AEEA-γGlu-C20 diacid])CNTATCATQRLANFLRHSSPNFGAIPSPTPVGSNTY-NH2
modifications: disulfide 2-7; N-terminus assumed
SMILES: CC[C@H](C)[C@H](NC(=O)[C@H](C)NC(=O)CNC(=O)[C@H](Cc1ccccc1)NC(=O)[C@H](CC(N)=O)NC(=O)[C@@H]1CCCN1C(=O)[C@H](CO)NC(=O)[C@H](CO)NC(=O)[C@H](Cc1c[nH]cn1)NC(=O)[C@H](CCCNC(=N)N)NC(=O)[C@H](CC(C)C)NC(=O)[C@H](Cc1ccccc1)NC(=O)[C@H](CC(N)=O)NC(=O)[C@H](C)NC(=O)[C@H](CC(C)C)NC(=O)[C@H](CCCNC(=N)N)NC(=O)[C@H](CCC(N)=O)NC(=O)[C@@H](NC(=O)[C@H](C)NC(=O)[C@@H]1CSSC[C@H](NC(=O)[C@@H](N)CCCCNC(=O)COCCOCCNC(=O)CC[C@H](NC(=O)CCCCCCCCCCCCCCCCCCC(=O)O)C(=O)O)C(=O)N[C@@H](CC(N)=O)C(=O)N[C@@H]([C@@H](C)O)C(=O)N[C@@H](C)C(=O)N[C@@H]([C@@H](C)O)C(=O)N1)[C@@H](C)O)C(=O)N1CCC[C@H]1C(=O)N[C@@H](CO)C(=O)N1CCC[C@H]1C(=O)N[C@H](C(=O)N1CCC[C@H]1C(=O)N[C@H](C(=O)NCC(=O)N[C@@H](CO)C(=O)N[C@@H](CC(N)=O)C(=O)N[C@H](C(=O)N[C@@H](Cc1ccc(O)cc1)C(N)=O)[C@@H](C)O)C(C)C)[C@@H](C)O
notes: Analogue of human amylin; also called compound 54
B2: N^ε1-[2-[2-[2-[[(4S)-4-carboxy-4-(19-carboxynonadecanoylamino)butanoyl]amino]ethoxy]ethoxy]acetyl]-[Arg17,Pro21,Pro27,Pro31,His35]-h-amylin (peptide)
peptide: K([AEEA-γGlu-C20 diacid])CNTATCATQRLANFLRHSSPNFGAIPSSTPVGSHTY-NH2
modifications: disulfide 2-7; N-terminus assumed
SMILES: CC[C@H](C)[C@H](NC(=O)[C@H](C)NC(=O)CNC(=O)[C@H](Cc1ccccc1)NC(=O)[C@H](CC(N)=O)NC(=O)[C@@H]1CCCN1C(=O)[C@H](CO)NC(=O)[C@H](CO)NC(=O)[C@H](Cc1c[nH]cn1)NC(=O)[C@H](CCCNC(=N)N)NC(=O)[C@H](CC(C)C)NC(=O)[C@H](Cc1ccccc1)NC(=O)[C@H](CC(N)=O)NC(=O)[C@H](C)NC(=O)[C@H](CC(C)C)NC(=O)[C@H](CCCNC(=N)N)NC(=O)[C@H](CCC(N)=O)NC(=O)[C@@H](NC(=O)[C@H](C)NC(=O)[C@@H]1CSSC[C@H](NC(=O)[C@@H](N)CCCCNC(=O)COCCOCCNC(=O)CC[C@H](NC(=O)CCCCCCCCCCCCCCCCCCC(=O)O)C(=O)O)C(=O)N[C@@H](CC(N)=O)C(=O)N[C@@H]([C@@H](C)O)C(=O)N[C@@H](C)C(=O)N[C@@H]([C@@H](C)O)C(=O)N1)[C@@H](C)O)C(=O)N1CCC[C@H]1C(=O)N[C@@H](CO)C(=O)N[C@@H](CO)C(=O)N[C@H](C(=O)N1CCC[C@H]1C(=O)N[C@H](C(=O)NCC(=O)N[C@@H](CO)C(=O)N[C@@H](Cc1c[nH]cn1)C(=O)N[C@H](C(=O)N[C@@H](Cc1ccc(O)cc1)C(N)=O)[C@@H](C)O)C(C)C)[C@@H](C)O
notes: Analogue of human amylin; also called compound 57
B3: N^ε1-[2-[2-[2-[[(4S)-4-carboxy-4-(19-carboxynonadecanoylamino)butanoyl]amino]ethoxy]ethoxy]acetyl]-[Arg17,Pro21,Pro27,Pro29,Pro34]-h-amylin (peptide)
peptide: K([AEEA-γGlu-C20 diacid])CNTATCATQRLANFLRHSSPNFGAIPSPTNVGPNTY-NH2
modifications: disulfide 2-7; N-terminus assumed
SMILES: CC[C@H](C)[C@H](NC(=O)[C@H](C)NC(=O)CNC(=O)[C@H](Cc1ccccc1)NC(=O)[C@H](CC(N)=O)NC(=O)[C@@H]1CCCN1C(=O)[C@H](CO)NC(=O)[C@H](CO)NC(=O)[C@H](Cc1c[nH]cn1)NC(=O)[C@H](CCCNC(=N)N)NC(=O)[C@H](CC(C)C)NC(=O)[C@H](Cc1ccccc1)NC(=O)[C@H](CC(N)=O)NC(=O)[C@H](C)NC(=O)[C@H](CC(C)C)NC(=O)[C@H](CCCNC(=N)N)NC(=O)[C@H](CCC(N)=O)NC(=O)[C@@H](NC(=O)[C@H](C)NC(=O)[C@@H]1CSSC[C@H](NC(=O)[C@@H](N)CCCCNC(=O)COCCOCCNC(=O)CC[C@H](NC(=O)CCCCCCCCCCCCCCCCCCC(=O)O)C(=O)O)C(=O)N[C@@H](CC(N)=O)C(=O)N[C@@H]([C@@H](C)O)C(=O)N[C@@H](C)C(=O)N[C@@H]([C@@H](C)O)C(=O)N1)[C@@H](C)O)C(=O)N1CCC[C@H]1C(=O)N[C@@H](CO)C(=O)N1CCC[C@H]1C(=O)N[C@H](C(=O)N[C@@H](CC(N)=O)C(=O)N[C@H](C(=O)NCC(=O)N1CCC[C@H]1C(=O)N[C@@H](CC(N)=O)C(=O)N[C@H](C(=O)N[C@@H](Cc1ccc(O)cc1)C(N)=O)[C@@H](C)O)C(C)C)[C@@H](C)O
notes: Analogue of human amylin; also called compound 56
B4: N^ε1-[2-[2-[2-[[(4S)-4-carboxy-4-(19-carboxynonadecanoylamino)butanoyl]amino]ethoxy]ethoxy]acetyl]-[Gly14,Arg17,Pro21,Pro27,Pro31]-h-amylin (peptide)
peptide: K([AEEA-γGlu-C20 diacid])CNTATCATQRLAGFLRHSSPNFGAIPSSTPVGSNTY-NH2
modifications: disulfide 2-7; N-terminus assumed
SMILES: CC[C@H](C)[C@H](NC(=O)[C@H](C)NC(=O)CNC(=O)[C@H](Cc1ccccc1)NC(=O)[C@H](CC(N)=O)NC(=O)[C@@H]1CCCN1C(=O)[C@H](CO)NC(=O)[C@H](CO)NC(=O)[C@H](Cc1c[nH]cn1)NC(=O)[C@H](CCCNC(=N)N)NC(=O)[C@H](CC(C)C)NC(=O)[C@H](Cc1ccccc1)NC(=O)CNC(=O)[C@H](C)NC(=O)[C@H](CC(C)C)NC(=O)[C@H](CCCNC(=N)N)NC(=O)[C@H](CCC(N)=O)NC(=O)[C@@H](NC(=O)[C@H](C)NC(=O)[C@@H]1CSSC[C@H](NC(=O)[C@@H](N)CCCCNC(=O)COCCOCCNC(=O)CC[C@H](NC(=O)CCCCCCCCCCCCCCCCCCC(=O)O)C(=O)O)C(=O)N[C@@H](CC(N)=O)C(=O)N[C@@H]([C@@H](C)O)C(=O)N[C@@H](C)C(=O)N[C@@H]([C@@H](C)O)C(=O)N1)[C@@H](C)O)C(=O)N1CCC[C@H]1C(=O)N[C@@H](CO)C(=O)N[C@@H](CO)C(=O)N[C@H](C(=O)N1CCC[C@H]1C(=O)N[C@H](C(=O)NCC(=O)N[C@@H](CO)C(=O)N[C@@H](CC(N)=O)C(=O)N[C@H](C(=O)N[C@@H](Cc1ccc(O)cc1)C(N)=O)[C@@H](C)O)C(C)C)[C@@H](C)O
notes: Analogue of human amylin; also called compound 71
B5: N^ε1-[2-[2-[2-[[(4S)-4-carboxy-4-(19-carboxynonadecanoylamino)butanoyl]amino]ethoxy]ethoxy]acetyl]-[Arg17,Pro21,Pro27,Pro34,His35]-h-amylin (peptide)
peptide: K([AEEA-γGlu-C20 diacid])CNTATCATQRLANFLRHSSPNFGAIPSSTNVGPHTY-NH2
modifications: disulfide 2-7; N-terminus assumed
SMILES: CC[C@H](C)[C@H](NC(=O)[C@H](C)NC(=O)CNC(=O)[C@H](Cc1ccccc1)NC(=O)[C@H](CC(N)=O)NC(=O)[C@@H]1CCCN1C(=O)[C@H](CO)NC(=O)[C@H](CO)NC(=O)[C@H](Cc1c[nH]cn1)NC(=O)[C@H](CCCNC(=N)N)NC(=O)[C@H](CC(C)C)NC(=O)[C@H](Cc1ccccc1)NC(=O)[C@H](CC(N)=O)NC(=O)[C@H](C)NC(=O)[C@H](CC(C)C)NC(=O)[C@H](CCCNC(=N)N)NC(=O)[C@H](CCC(N)=O)NC(=O)[C@@H](NC(=O)[C@H](C)NC(=O)[C@@H]1CSSC[C@H](NC(=O)[C@@H](N)CCCCNC(=O)COCCOCCNC(=O)CC[C@H](NC(=O)CCCCCCCCCCCCCCCCCCC(=O)O)C(=O)O)C(=O)N[C@@H](CC(N)=O)C(=O)N[C@@H]([C@@H](C)O)C(=O)N[C@@H](C)C(=O)N[C@@H]([C@@H](C)O)C(=O)N1)[C@@H](C)O)C(=O)N1CCC[C@H]1C(=O)N[C@@H](CO)C(=O)N[C@@H](CO)C(=O)N[C@H](C(=O)N[C@@H](CC(N)=O)C(=O)N[C@H](C(=O)NCC(=O)N1CCC[C@H]1C(=O)N[C@@H](Cc1c[nH]cn1)C(=O)N[C@H](C(=O)N[C@@H](Cc1ccc(O)cc1)C(N)=O)[C@@H](C)O)C(C)C)[C@@H](C)O
notes: Analogue of human amylin; also called compound 58

Target: T1, rat calcitonin receptor (rat, UniProt P32214 25-516)
T1 construct: whole, on cells; Membranes prepared from transiently transfected BHK tk'ts 13 cells (Assay VIII); also called rCTR; rCT
T1 sequence (looked up): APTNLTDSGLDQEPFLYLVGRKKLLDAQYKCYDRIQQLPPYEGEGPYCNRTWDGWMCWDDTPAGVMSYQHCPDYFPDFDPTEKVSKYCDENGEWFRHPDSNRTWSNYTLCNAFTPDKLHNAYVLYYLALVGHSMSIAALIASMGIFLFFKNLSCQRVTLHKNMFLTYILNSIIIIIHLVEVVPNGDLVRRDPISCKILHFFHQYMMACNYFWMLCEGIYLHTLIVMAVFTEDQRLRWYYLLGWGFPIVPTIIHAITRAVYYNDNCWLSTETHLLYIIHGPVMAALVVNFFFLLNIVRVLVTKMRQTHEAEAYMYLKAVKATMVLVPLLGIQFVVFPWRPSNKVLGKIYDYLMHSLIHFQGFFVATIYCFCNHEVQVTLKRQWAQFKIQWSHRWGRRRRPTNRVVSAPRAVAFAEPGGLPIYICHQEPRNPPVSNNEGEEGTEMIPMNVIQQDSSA
Assay: ratio of binding IC50s: rat calcitonin receptor / rat amylin receptor (reference)

Going from B1 to B2, the “Ratio rCT/rAmylin binding” value falls from 179 to 135.

First: B3
Second: B4
The “Ratio rCT/rAmylin binding” value of the first is lower: 131 for the first, 162 for the second.

In the case of B5, the “Ratio rCT/rAmylin binding” value is reported as 76.6.

Target: T2, human calcitonin receptor (human, UniProt P30988 25-474)
T2 construct: whole, on cells; Membranes prepared from a stably transfected BHK cell line (Assay VII); also called hCTR; hCT
T2 sequence (looked up): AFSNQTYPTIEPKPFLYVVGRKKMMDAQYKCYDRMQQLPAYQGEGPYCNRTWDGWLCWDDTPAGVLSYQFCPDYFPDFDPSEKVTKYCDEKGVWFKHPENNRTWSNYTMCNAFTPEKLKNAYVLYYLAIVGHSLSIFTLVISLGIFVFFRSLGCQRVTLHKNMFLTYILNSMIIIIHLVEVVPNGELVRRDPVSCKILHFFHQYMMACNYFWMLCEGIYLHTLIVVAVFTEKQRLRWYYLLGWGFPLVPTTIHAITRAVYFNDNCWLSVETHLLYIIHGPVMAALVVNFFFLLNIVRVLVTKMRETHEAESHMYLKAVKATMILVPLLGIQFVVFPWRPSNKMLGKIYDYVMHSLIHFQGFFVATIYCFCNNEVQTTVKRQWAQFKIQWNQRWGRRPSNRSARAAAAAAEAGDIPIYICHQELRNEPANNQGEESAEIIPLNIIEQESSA
Assay: ratio of binding IC50s: human calcitonin receptor / human amylin receptor (reference)
How it was run: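 Competition binding by SPA uses membrane preparations (35 ng/μL final) in pH 7.4 Hepes buffer with 1 mM CaCl2 and 5 mM MgCl₂. Incubation lasts 120 min at 25° C, and IC₅₀ comes from one-site fitting.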

First: B1
Second: B2
The “Ratio hCT/hAmylin binding” value of the first is higher: 146 for the first, 133 for the second.

Going from B3 to B4, the “Ratio hCT/hAmylin binding” value falls from 42.6 to 32.

In the case of B5, the “Ratio hCT/hAmylin binding” value is reported as 109.

Target: T1, rat calcitonin receptor
Assay: SPA competition vs 125I-calcitonin, membranes of BHK cells with rat calcitonin receptor (Assay VIII)

Going from B1 to B2, the IC50 rises from 8.79 nM to 24.4 nM (2.8-fold). The first is the more potent here.

First: B3
Second: B4
The IC50 of the first is 8.5-fold lower: 5.26 nM for the first, 44.8 nM for the second.

For B5, the IC50 was 10.3 nM.

Target: T3, rat amylin receptor (rat calcitonin receptor + rat RAMP 3) (rat, UniProt P32214 25-516; Q9JJ73 23-147)
T3 construct: whole, on cells; Membranes prepared from transiently transfected BHK tk'ts 13 cells (Assay VI); also called rAmylin-R; rAmylin
T3 sequence (looked up) 1: T1 sequence (looked up)
T3 sequence (looked up) 2: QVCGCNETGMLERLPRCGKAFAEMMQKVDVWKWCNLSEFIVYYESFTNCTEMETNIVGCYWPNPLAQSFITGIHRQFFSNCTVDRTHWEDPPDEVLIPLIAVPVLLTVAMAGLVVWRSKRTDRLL
Assay: SPA competition vs 125I-rat amylin, membranes of BHK cells with rat calcitonin receptor + rat RAMP3 (Assay VI)

First: B1
Second: B2
The IC50 of the first is 3.7-fold lower: 0.049 nM for the first, 0.181 nM for the second. The first is the more potent here.

Going from B3 to B4, the IC50 rises from 0.04 nM to 0.276 nM (6.9-fold).

B5 was tested, and the IC50 was 0.135 nM.
